According to patent US20220047695A1:
Values joined by “and” are separate entries in the source; they are usually repeats but may differ in a detail not shown here. Equal entries are not always repeated.

Target: IgE-GLT1-NP (IgE leader, lumazine synthase, linker, eOD-GT8; self-assembling 60mer nanoparticle) (Aquifex aeolicus lumazine synthase fused to HIV-1 gp120 fragment)
Assay: immunogold TEM of muscle sections from mice immunized with DNA-encoded IgE-GLT1-NP (VRC01 + anti-human 6 nm gold)

VRC01 antibody (NIH AIDS Reagent)
visible copies of VRC01 binding: 11 copies and 17 copies
